Results from patent US7422862B2, “Methods for identifying modulators of apoptosis” (The Burnham Institute, priority 2001, dated 2008).
Each block holds one substance with its values, some of them ahead of it. No end group written: not given here.

What was measured:
[1] = previously reported (Hashimoto et al.); cited from earlier work
Bax [2] = molecular target: T1, Bax (Homo sapiens, UniProt Q07812); assay: Bax-induced apoptosis in transfected neuronal cells (DAPI staining); type: cell-based; parameters: expressed in transfected cells
Experimental: (A) HEK293T cells were transfected with pcDNA3-HA-Bax together with plasmids encoding GFP, GFP-HN(N), or GFP-HN(M). Cell lysates were immunoprecipitated with polyclonal anti-GFP antibody. Immunoprecipitates (IP) or cell lysates were analyzed by immunoblotting using anti-HA or anti-GFP antibodies, respectively. (B) CSM14.1 neuronal cells were co-transfected with pcDNA3-HA-Bax together with plasmids encoding GFP, GFP-HN(N), or GFP-HN(M). Percent apoptosis was determined 48 h later by DAPI staining (mean±SD; n=3).
(§1) Rat neuronal cell line CSM14.1 cells were transfected with various plasmids using the Lipofectamine reagent (Invitrogen). For transfection, 10×10^5 cells were plated per well using 6 well plates. Each well received 1 μg DNA plus […] of Lipofectamine. After 24 hours of transfection, the percentage of cell death was determined using 4′-6-diamidino-2-phenylindole (DAPI) staining. […] The data shown were obtained using the cytosolic form of Humanin; however, both cytosolic and mitochondrial forms of Humanin were tested and the results were the same.
(§2) Apoptosis assays were performed as follows. Both floating and adherent cells (after trypsinization) were collected 48 hr after transfection, fixed, and stained using 4′,6-diamidine-2′-phenylindole dihydrochloride (DAPI) for assessing apoptosis based on nuclear fragmentation and chromatin condensation (Fields and Song, supra (1989)).
Since Humanin co-immunoprecipitates with Bax but not Bak, the effects of Humanin over-expression on apoptosis induced by these members of the Bcl-2 family was compared. […] Similar results were obtained regardless of whether Humanin was fused to the N- or C-terminus of GFP, with both of these GFP fusion polypeptides localizing to the cytosol of cells.

Bax [3] = molecular target: T1, Bax; assay: Suppression of apoptosis induced by Bax over-expression (Humanin mutants); type: cell-based; parameters: expressed in transfected cells; host or cells: HEK293T; conditions: GFP-fusion polypeptides, 3:1 ratio of HN:Bax plasmid DNA
Experimental: as §2
(§3) In order to explore whether a correlation exists between Humanin binding to Bax and Humanin-mediated suppression of apoptosis, Bax was co-expressed with various GFP-fusion polypeptides encoding wild-type, full-length Humanin or various truncation and site-specific mutants of Humanin (Table 1). Expression of all GFP-fusion polypeptides was confirmed by immunoblotting, and ability to bind Bax was determined by co-immunoprecipitation assay. Each Humanin mutant was scored for ability to suppress apoptosis induced by Bax over-expression by >50% using a 3:1 ratio of HN:Bax plasmid DNA. […] Based on these studies, an active region of the 24 amino-acid Humanin peptide, mapped to residues 7-17.
Cell culture and transfections were performed as follows. CSM14.1, HCT116, Cos-7, and SF268 cells were cultured in DMEM high glucose media (Irvine Scientific, Santa Ana, Calif.) containing 10% fetal bovine serum (FBS). PC-3 cells were cultured with RPMI 1640 media containing 10% FBS. Transfection of cells was performed using SuperFect (Qiagen, Chatsworth, Calif.) or LipofectaminePLUS reagent ([…]).

Bax [4] = molecular target: T1, Bax; assay: Co-immunoprecipitation of GFP-Humanin fusion polypeptides with Bax in transfected cells; type: binding; parameters: expressed in transfected cells; host or cells: HEK293T; key to Bax binding: +: ability to bind Bax was determined by co-immunoprecipitation assay; −: lacked Bax-binding activity; conditions: for Bax binding: GFP-fusion polypeptides, co-immunoprecipitation
Source text: Humanin (HN) cDNA was sub-cloned into a Green Fluorescence Protein (GFP) expression vector GFP-Cl at the Xhol/Hind III sites, producing a GFP-HN fusion polypeptide. GFP and GFP-HN were transfected into 293T cells with pcDNA3-HA-Bax. Cell lysates from these cells were immunoprecipitated with anti-GFP antibody and subsequently blotted with anti-HA antibody. The lysates were also blotted with ani-GFP antibody to confirm polypeptide expression. […] The data shown were obtained using the cytosolic form of Humanin; however, both cytosolic and mitochondrial forms of Humanin were tested and the results were the same.
Co-immunoprecipitation assays were performed using Humanin polypeptides expressed as fusion polypeptides with the Green Fluorescent Protein (GFP) in human cells. Wild-type Humanin fused to GFP is referred to as GFP-HN and a mutant form of Humanin, where the cysteine at position 8 is replaced with proline, fused to GFP is referred to as GFP-C8P. […] Immunoblot analysis of lysates of the transfected cells confirmed production of all proteins. In addition, GFP-HN also coimmunoprecipitated endogenous Bax from cell lines, which contain relatively high levels of the Bax protein.
Immunoblotting and immunoprecipitations were performed as follows. Immunoblotting was performed as described previously (Fields and Song, Nature 340:245-246 (1989)). For co-immunoprecipitations, cells were cultured in 50 uM […] Valine Alanine Asparate fluoromethyl-ketone (zVAD-fmk) to prevent apoptosis. Cells were suspended in lysis buffer (50 mM Tris-HCl, pH7.4; 150 mM NaCl; 20 mM EDTA; 50 mM NaF; 0.5% NP-40; 0.1 mM Na3VO4; 20 ug/ml Leupeptin; 20 ug/ml Aprotinin; 1 mM DTT; and 1 mM PMSF). Lysates (200 ul diluted in 1 ml final volume of lysis buffer) were cleared by incubation with 15 ul of protein G-Sepharose 4B (Zymed) and then incubated with 15 ul of polyclonal antibody and 15 ul of protein G at 4° C. overnight. Beads were then washed 4 times with 1.5 mls lysis buffer before boiling in Laemmli sample buffer and performing SDS-PAGE/immunoblotting.
as §3

t-Bid = molecular target: T2, t-Bid (Homo sapiens, UniProt P55957); assay: Bid-induced apoptosis in CSM14.1 cells (DAPI staining); type: cell-based; parameters: expressed in transfected cells; host or cells: CSM14.1 rat hippocampal neuronal cells; conditions: 24 hours after transfection
T2 sequence (P55957 61-195 limits assumed): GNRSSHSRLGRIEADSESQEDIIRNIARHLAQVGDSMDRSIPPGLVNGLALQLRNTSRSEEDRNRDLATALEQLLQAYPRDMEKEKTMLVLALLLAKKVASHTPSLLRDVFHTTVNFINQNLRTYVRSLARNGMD
Experimental: Apoptosis was examined by DAPI staining. The data shown were obtained using the cytosolic form of Humanin; however, both cytosolic and mitochondrial forms of Humanin were tested and the results were the same.
as §1

CSM14.1 cells = assay: Apoptosis of CSM14.1 cells induced by various stimuli; type: cell-based, rat
Experimental: (A-D) CMS14.1 neuronal cells were transfected with plasmids encoding Flag-HN peptide or Flag-control (27-amino-acid) peptide, together with GFP-encoding plasmid at 4:1 ratio. Cells were either cultured without further treatment (open bars) or subjected to various apoptotic stimuli for various times (dark bars), including (A) STS for 8 h (dark symbols=Flag-control; open symbols=Flag-HN), (B) Serum-deprivation for 72 h, (C) 10 joules/m2 Uvirradiation followed by 24 h culture, and (D) 50 ng/ml TNFa in […] for 24 h. Cells were then fixed and stained with DAPI to determine the percentage of apoptotic cells, evaluating=200 GFP-positive cells per sample (mean±SD; n=3). (inset) Lysates prepared from replicate cultures of transfected cells were normalized for total protein content and analyzed by immunoblotting using anti-Flag (top) and anti-tubulin (bottom) antibodies, confirming production of similar amounts of Flag-control and Flag-HN peptides. (E) SF268 cells were transfected with Humanin siRNA (HN-siRNA) (dark bars) or mutant siRNA containing two mismatches (mut-siRNA) as negative control (open bars). (Upper panel) After 72 hr, cell lysates were prepared and 100 ug was analyzed by immunoblotting using anti-HN and anti-tubulin (as a loading control) antibodies. (Lower panel) At 72 hr after siRNA transfection, SF268 cells were cultured with 0.1 μM STS for 8 hrs, then % apoptosis was determined (mean+std dev; n=3). (F) HN protects against Bax- but not Bak-induced apoptosis. CSM14.1 neuronal cells were co-transfected with pcDNA3-HA-Bax or pcDNA3-HA-Bak together with plasmids encoding with GFP (indicated by “-”), GFP-HN, or GFP-HN(C8P). Apoptosis (%) was measured 48 hrs later among GFP-positive cells. (G) Humanin inhibits STS-induced apoptosis in wild type HCT116 cells, but not HCT116 BAX -/- cells. HCT116 cells heterozygous or homozygous for BAX gene inactivation were transfected with plasmids encoding GFP (open bars) or GFP-HN (dark bars). After 24 h, cells were cultured without (C) or with STS (0.2 μM for wild type and 1.0 μM for Bax - /- cells) for 8 h, then % apoptosis was determined for GFP-positive cells (mean+std dev; n=3). (inset) Lysates from the cells were analyzed by immunoblotting (20 ug) using anti-Bax (top) and anti-Bid (bottom) antibodies. (H) HN prevents Bax-induced cell death in yeast. Cells were co-transformed with YEp51-Bax (encoding Bax under control of a GAL10 promoter) and plasmid control (C) or plasmids encoding Humanin or Humanin(C8P) fusion polypeptides. Cells initially grown in glucose-containing medium were streaked onto either glucose (top) or galactose (bottom) plates to suppress or induce Bax expression, respectively.
For these experiments, Flag-epitope tagged Humanin (Flag-HN) or Flag control polypeptides were expressed in CSM14.1 cells, an immortalized rat hippocampal neuronal cell line that has been used as a model for neuronal apoptosis studies (Kermer et al., Cell Death Differ. 9:405-413 (2002)). Apoptosis of CSM14.1 cells induced by Staurosporine (STS), UV-irradiation, and serum-deprivation was suppressed by Flag-HN (FIG. 6A-C). […] Note that at higher doses of STS (FIG. 6A), Humanin-mediated protection was overcome, indicating Humanin-insensitive mechanisms of apoptosis induction exist, even when using a mitochondria-dependent death stimuli.
Apoptosis assays were performed as follows. […]

T1 sequence (Q07812 whole entry, species assumed): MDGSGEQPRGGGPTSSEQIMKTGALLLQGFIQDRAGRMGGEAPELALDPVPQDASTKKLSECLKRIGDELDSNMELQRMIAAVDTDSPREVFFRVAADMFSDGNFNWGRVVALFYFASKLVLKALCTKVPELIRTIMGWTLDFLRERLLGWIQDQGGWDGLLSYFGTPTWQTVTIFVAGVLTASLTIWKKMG

suppression of apoptosis induced by Bax (Bax [2]; CSM14.1 or PC-3 cells, transient co-transfection): did not suppress
co-immunoprecipitation with tagged Bax (Bax [4]; 293T/HEK293T cells, anti-GFP immunoprecipitation): did not
Bax binding (Bax [4]): −
Substance: GFP-HN(C8P): mutant Humanin, cysteine at position 8 replaced with proline, fused to GFP (MAPRGFSPLLLLTSEIDLPVKRRA; also: fused to GFP; UniProt Q8IVG9 1-24, looked up, variant C8P)
anti-apoptotic activity when expressed in cells [1]: lack anti-apoptotic activity
Bax suppression (Bax [3]): − (failed to protect against Bax-induced apoptosis)

Bax binding (Bax [4]): −
Substance: L9R: GFP-fusion of Humanin site-specific mutant L9R (MAPRGFSCRLLLTSEIDLPVKRRA; also: fused to GFP; UniProt Q8IVG9 1-24, looked up, variant L9R)
anti-apoptotic activity when expressed in cells [1]: lack anti-apoptotic activity
Bax suppression (Bax [3]): − (failed to protect against Bax-induced apoptosis)

Bax-induced apoptosis (Bax [2]; CSM14.1 cells, 24 hours after transfection, DAPI): not able to decrease
Bid-induced apoptosis (t-Bid): not able to decrease
Substance: Humanin (C8A): mutant form of Humanin where the cysteine at position 8 was mutated to an alanine (MAPRGFSALLLLTSEIDLPVKRRA; also: fused to GFP; UniProt Q8IVG9 1-24, looked up, variant C8A)

Substance: Flag-HN: Flag-epitope tagged Humanin expressed in cells (MAPRGFSCLLLLTSEIDLPVKRRA; also: Flag epitope tag; UniProt Q8IVG9 1-24, looked up)
apoptosis induced by UV-irradiation (CSM14.1 cells): suppressed
apoptosis induced by serum-deprivation (CSM14.1 cells): suppressed
apoptosis induced by TNF (CSM14.1 cells; Bax-independent death stimulus): not suppressed
apoptosis induced by Staurosporine (STS) (CSM14.1 cells; STS 8 h): suppressed
protection at higher doses of STS (CSM14.1 cells; higher doses of STS): overcome
